These results are taken from patent US20130157932A1, “NGAL AND URINARY TRACT INFECTION” (The Trustees of Columbia University in the City of New York, priority 2010, published 2013).

“Also recorded” adds a separate entry of the source.

Test [1] has as its system Primary Ngal-Luciferase2/mCherry medullary cells. As to the kind of experiment: NGAL-Luc2 expression in primary Ngal-Luciferase2/mCherry kidney cells co-cultured with UPEC. To be noted: co-culture with UPEC 3 h; antibiotic added at the time of UPEC; n=3. The test is classed as cell-based, mouse. The procedure:
[…] Alternatively, primary cells were treated with Lipid A and in some cases with NF-kB inhibitors, MG132 (Cayman Chemical), and Analogues 27, 30, and 3121 and Analogue 3022. The Luciferase substrate (Dual-Glo™ Luciferase Assay System; Promega) was added and luminescence from Luc2 and fluorescence from mC (excitation of 500-550 nm and emission of 575-650 nm) were imaged in a Xenogen IVIS optical imaging system.
Luc2/mC di-fusion reporter mice (8-12 weeks of age) were perfused with PBS and kidney cells were isolated with collagenase (2 mg ml^−1; Sigma), and cultured (1×10^5 well^−1 in 24-well plates; Falcon) in DMEM/F12 medium supplemented with 10% FBS, 1% penicillin-streptomycin, and 46 mg/l L-Valine for 24 h. […] Luciferase substrate (Dual-Glo Luciferase Assay System; Promega) was added and luminescence from Luc2 and fluorescence from mC (excitation 500-550 nm and emission 575-650 nm) were imaged in a Xenogen IVIS optical imaging system.

A further test concerns explanted bladders. As to the kind of experiment: NGAL-Scn secretion by bladders explanted from LPS treated mice. The test is classed as in vivo, mouse. The procedure: FIGS. 17A-B. C57/BL6 mice challenged with i.p. LPS (1 mg kg^−1) were explanted and media collected at 12 h and 24 hr of culture. FIG. 17A. […] FIG. 17B. NGAL-Scn was detected by Western blot.
Because both the bladder and kidney might contribute to uNGAL-Scn expression, we performed in situ hybridization 1 d post-TU challenge with UPEC (20-30 μl of 5×10^8 CFU ml^−1 i.e. ˜1×10^7 total CFU). We found Ngal-Scn message in collecting duct epithelia (FIG. 8H) (1) and in a thin luminal layer of bladder epithelia (FIG. 8I), but the majority of Ngal-Scn transcripts were found in the kidney (FIG. 8J). Moreover, in a controlled experiment, bladders explanted from mice treated with LPS (1 mg kg^−1) secreted approximately 10 ng per bladder over 12 h (FIG. 17), a small percentage of even a single collection of urine (250 ng ul^−1) from the treated mouse. In sum, while many types of genitourinary epithelia can express uNGAL-Scn in response to cystitis, the kidney was a dominant source of NGAL-Scn, even though kidney bacteria fell at, or below, our limit of detection (10^2 CFU kidney^−1; FIG. 18), and an inoculum less than 50 μl is not likely to generate gross vesico-ureteral reflux (VUR) (24).

The next test deals with NGAL-Scn expression. As to the kind of experiment: NGAL-Scn expression in mice after i.p. LPS. The test is classed as in vivo, mouse. On the procedure: To identify elements of the pathway that detect UPEC, we evaluated whether IC could respond to a low dose of LPS (i.p. 1 mg kg^−1), a TLR4 agonist. […] To assess the role of TLR4 further, we inoculated LPS-responsive C3H/HeN (Lps“) and C3H/HeOuJ (Lps”) mice and LPS-defective C3H/HeJ (Lps^d) mice by TU with […] of 5×10^8 CFU ml^−1 (n=15). […] To confirm that kidney expressed TLR4 was critical, we cross-transplanted Lps^d kidneys into nephrectomized Lps^n controls and vice versa. […] Concurrently, TLR4 modulates the burden of urinary infection, by regulating the expression of NGAL-Scn in kidney epithelia.

The subject of test [2] is Ngal expression in the kidney. Put plainly: Kidney Ngal expression (QPCR) after lipid A/LPS in reciprocal kidney cross-transplants. The test is classed as in vivo, mouse. To be noted: 1 mg/kg, vs untreated cross transplant, n=3. The procedure: To determine whether uNGAL originated from the kidney in a TLR-dependent fashion, kidney transplantation between Tlr-4-mutant CH3/HeJ mice and wild type CH3/HeOuJ mice was performed. To evaluate the contribution of TLR signaling to NGAL expression a cross-transplant model using TLR mutants and systemic administration of LPS as a positive control was used. The CH3/HeJ kidneys from the LPS-insensitive mice were transplanted into CH3/HeOuJ LPS-sensitive (control) mouse bodies, and vice versa. Two weeks after graft maturation, when uNGAL and sCr had stabilized to normal values, a low dose of lipid A (1 mg/kg of body weight) was administered to induce Ngal expression in the kidney (FIG. 4a). […] It is not surprising that there was some Ngal induction in the knockout (KO) kidney because CH3/HeJ are partial KOs and it has also been previously shown that lipid A can signal through the MyD88-dependent pathway without a functioning Tlr4. […]
To identify elements of the pathway that detect UPEC, we evaluated whether IC could respond to a low dose of LPS (i.p. 1 mg kg^−1), a TLR4 agonist. […]
Surgical cross-transplants (1, 44) were monitored for two weeks until serum creatinine stabilized to 0.2 mg dL^−1 and uNGAL-Scn was undetectable prior to ip challenge with LPS (1 mg kg^−1).

Test [3] relates to uropathogenic Escherichia coli strain (CFT073). Put plainly: In vitro growth of UPEC CFT073 in M9 minimal medium or urine. The test is classed as cell-based. To be noted: for bacterial growth after addition of FeCl3 to NGAL: M9 with NGAL 5 μM plus FeCl3 1 mM; for bacterial growth (optical density): M9 minimal medium; for growth of UPEC (OD600) in urine: human urine pH 5.8 (<pH 6.0), NGAL-Scn 5 μM. The text has this: To investigate the relationship between NGAL and UPEC a pyelonephritogenic clinical isolate of uropathogenic Escherichia coli, CFT073, was aliquoted in 96 well plates containing M9 minimal medium supplemented with MgCl2 and glucose (see green hashed line: FIG. 1a), and bacterial growth was monitored by spectrophotometry.
Next, we tested whether NGAL-Scn was sufficient to inhibit urinary bacterial growth. We used UPECs grown to log phase in an iron restricted minimal media (M9), and then subsequently transferred the bacteria into urine or M9. Growth in human urine (<pH 6.0) was similar to growth in acidified M9 (<pH 6.0; FIG. 8C, D).
A single colony of CFT073 was selected from a plate and grown in M9 to log phase. Bacteria were pelleted and resuspended in either M9 or urine and monitored in a 96 well plate on a Tecan 200 Promicroplate reader for up to 72 h.

Test [4] has as its system UPEC iron acquisition genes. As to the kind of experiment: Real time PCR of UPEC iron acquisition genes. The test is classed as cell-based, Escherichia coli. The text has this:
To determine whether NGAL-Scn induced bacterial iron starvation, we measured a series of iron acquisition systems (9, 10) that are regulated by iron load via fur, including catecholates enterochelin (ent genes) and salmochelin (iro genes), the hydroxamate aerobactin (iuc genes) (11, 12), their receptors, fepA, iroN (13-15), and iutA, respectively, and additionally the heme scavenging chu receptors (15). […] In sum, uNGAL-Scn is expressed within hours of the onset of infection in vivo, and it is required to limit bacterial growth during the early phases of acute cystitis, most likely by blocking iron acquisition.
Total RNA was isolated with the mirVANA (for eukaryotic cells) or ribopure (for bacteria) RNA extraction kits (Ambion). First strand cDNA was synthesized with Superscript III (Invitrogen). Real-time PCR was performed in a 7500 Fast (Applied Biosystems) with a SYBR green supermix reagent (Fisher) and primers (Table 2) using β-actin (eukaryotic cells) and gapA (for bacteria) as internal controls. Fold amplification of transcripts was measured by the […] method.
(In general: In qPCR the cycle at which signal appears reflects the starting amount.)

For test [5], the system named is Enterochelin:Fe. The following applies: pH 4.0; cited from earlier work.
The test system of test [6] is Enterochelin:Fe. Put plainly: Enterochelin:Fe capture by NGAL-Scn. The test is classed as binding. The following applies: 3:1 Enterochelin:Fe::Ngal-Scn ratio; washed 5 times on 10 k filter. The procedure:
. IPTG (0.2 mM final concentration) was added for 5 h. Bacterial pellets were lysed by sonication in lysis buffer, followed by Triton-X 100 (0.5%) treatment for 30 min on ice. Supernatant was collected after high speed centrifugation and filter sterilized (0.45 μm). NGAL-Scn-GST was purified by binding to Glutathione Sepharose beads followed by cleavage of the GST tag with thrombin. Released protein was fractionated by a Sephacryl S100HR column. Enterochelin:Fe capture by NGAL-Scn was tested (Emc Microcollections gmbh) at a 3:1 Enterochelin:Fe::Ngal-Scn ratio.

Where [7] appears, read: M9 with iron added to match urinary concentration (806 nM).

As for gentamicin, the “NGAL-Luc2 expression in response to UPEC” value in test [1] was “blunted”.
Regarding Lipid A [LPS], the “NGAL-Scn upregulation in bladder explant media at 12 h” value with explanted bladders (C57/BL6, i.p. LPS 1 mg kg^−1, 12 h of culture, vs control, n=10) is 2 fold. For the same molecule, in the test on explanted bladders (C57/BL6, i.p. LPS 1 mg kg^−1, 24 h of culture, vs control, n=10), the “NGAL-Scn upregulation in bladder explant media at 24 h” value was found to be 5 fold. Further, the “NGAL-Scn secreted by explanted bladder” value in the test on explanted bladders (LPS 1 mg kg^−1, over 12 h) is on record as “approximately 10 ng per bladder”. Besides, the “NGAL-Scn in a single collection of urine from the treated mouse” value in the test on NGAL-Scn expression (LPS 1 mg kg^−1) turned out to be 250 ng/µL. Moreover, the “NGAL-Scn expression in intercalated cells / kidney medulla” value with NGAL-Scn expression (i.p. LPS 1 mg kg^−1, in situ hybridization) was “induced NGAL-Scn expression; also recorded: detected in alternating cells”. Further, in test [2], the “increase in Ngal expression, Tlr-4-mutant (Lps^d) kidney in wild type (Lps^n) host” value was 4.5±2.6 fold and the “increase in Ngal expression, wild type (Lps^n) kidney in Tlr-4-mutant (Lps^d) host” value is 15.6±2.3 fold.
For `[Cl][Fe]([Cl])[Cl]` [FeCl3, reference compound], the “bacterial growth after addition of FeCl3 to NGAL” value in test [3] is given as “rescued”; in test [3] (listed as iron), “reversed”.
`CC(=O)N(O)CCCCCNC(=O)CCC(=O)N(O)CCCCCNC(=O)CCC(=O)N(O)CCCCCN` [DFO, reference compound]: the “UPEC iron acquisition gene expression with DFO” value in test [4] (M9 media, DFO 50 μM or 5 μM, n=5) is recorded as “modulated”.

B1: Neutrophil Gelatinase Associated Lipocalin (NGAL)-Siderocalin (Scn) (protein, UniProt P11672 21-200, looked up)
Neutrophil …: QDSTQNLIPAPSLLTVPLQPDFRSDQFRGRWYVVGLAGNAVQKKTEGSFTMYSTIYELQENNSYNVTSILVRDQDQGCRYWIRTFVPSSRAGQFTLGNMHRYPQVQSYNVQVATTDYNQFAMVFFRKTSENKQYFKITLYGRTKELSPELKERFTRFAKSLGLKDDNIIFSVPTDQCIDN
modifications: recombinant, E. coli
notes: Recombinant mouse NGAL-Scn protein produced in BL21 E. coli
For B1, the “bacterial growth (optical density)” value in test [3] (NGAL 5 μM) is on record as “greatly inhibited”. Moreover, the “bacterial growth (optical density)” value in test [3] (NGAL 5 μM, listed as mouse (m) NGAL) is “significantly inhibited”. In addition, in test [3] (NGAL 5 μM, listed as uNGAL), the “bacterial growth (optical density)” value is “inhibit growth”. The “growth of UPEC in M9 at pH 5.8” value in test [3] (M9 pH 5.8 (typical urine pH), NGAL 5 μM, n=3) was “robust inhibition”. Also, the “growth of UPEC in M9 at pH 7” value in test [3] (M9 pH 7, NGAL 5 μM, n=3) is given as “reduced (and variable) growth inhibition”. Also, in test [3] (n=3), the “growth of UPEC (OD600) in urine” value is “greatly inhibited”. Further, in test [3] (n=3, listed as uNGAL-Scn), the “growth of UPEC (OD600) in urine” value is given as “inhibited the growth”. In test [4] (setting [7]), this molecule showed an EntF activation of 2410 fold, an iucD activation of 16970 fold and an iutA activation of 1.9 fold. Further, in test [4] (UPEC in M9, NGAL-Scn 5 μM), the chuS upregulation is 26.9 fold, the entA upregulation was found to be 396.2 fold, the entF upregulation is given as 36294.5 fold and the fepA upregulation stood at 18.0 fold. In test [4] (UPEC in M9, NGAL-Scn 5 μM), the iroN upregulation was 207 fold, the iucA upregulation turned out to be 12568.5 fold, the iucD upregulation is reported as 19.0 fold and the iutA upregulation worked out at 13.4 fold. Besides, in test [4] (UPEC in M9, NGAL-Scn 5 μM for 30 min, n=5), the “entA, entF, and iha gene expression” value was “upregulation”. Moreover, in the test on Enterochelin:Fe [5], the “enterochelin binding at low pH” value was “binds enterochelin even at pH 4.0”. Further, the “Enterochelin:Fe binding by coloration” value with Enterochelin:Fe [6] is recorded as “binding detected”.
